This is an account of results in paper PMC4027194.

This data set relates to G5 1297-1412 (RBS1). Put plainly: EMSA. In general terms: Mobility shift assays separate free from complexed probe on a gel.

What is called Kd is the equilibrium constant for the complex coming apart.

In the case of FMDV IRES domain 5, the Kd came to 20 µM.
